Assay results as given in US20150344570A1 (published 2015).

T1: FcγRIIb, extracellular domain with C-terminal His tag (human, UniProt P31994 43-217)
T1 construct: extracellular domain; also called 2b; FcgRIIb; not shown: His tag at the C terminus
T1 sequence (looked up): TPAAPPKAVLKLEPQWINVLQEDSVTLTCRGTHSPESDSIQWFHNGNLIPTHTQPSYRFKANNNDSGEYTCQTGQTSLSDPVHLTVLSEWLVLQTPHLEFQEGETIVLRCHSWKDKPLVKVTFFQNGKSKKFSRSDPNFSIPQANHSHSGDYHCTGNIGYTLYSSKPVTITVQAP

T2: FcγRIIa H (FcgRIIa type H, His at position 131), extracellular domain with C-terminal His tag (human, UniProt P12318 34-217)
T2 construct: extracellular domain; also called 2aH; FcgRIIa H; not shown: His tag at the C terminus
T2 sequence (looked up): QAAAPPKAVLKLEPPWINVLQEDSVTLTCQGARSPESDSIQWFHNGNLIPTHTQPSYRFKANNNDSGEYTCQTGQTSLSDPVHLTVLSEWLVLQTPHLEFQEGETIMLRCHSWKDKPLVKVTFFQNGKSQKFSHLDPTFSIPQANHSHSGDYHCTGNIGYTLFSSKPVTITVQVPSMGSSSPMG

T3: FcγRIIb (human, UniProt P31994 43-217)
T3 construct: extracellular domain; also called 2b; not shown: His tag at the C terminus
T3 sequence (looked up): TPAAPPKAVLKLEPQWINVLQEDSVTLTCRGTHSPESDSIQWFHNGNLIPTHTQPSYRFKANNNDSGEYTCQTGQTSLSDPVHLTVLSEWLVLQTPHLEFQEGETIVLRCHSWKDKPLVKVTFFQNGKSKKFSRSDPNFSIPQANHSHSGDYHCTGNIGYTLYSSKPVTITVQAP

T4: FcγRIIa H (human, UniProt P12318 34-217)
T4 construct: extracellular domain; also called FcγRIIa type H; 2aH; not shown: His tag at the C terminus
T4 sequence (looked up): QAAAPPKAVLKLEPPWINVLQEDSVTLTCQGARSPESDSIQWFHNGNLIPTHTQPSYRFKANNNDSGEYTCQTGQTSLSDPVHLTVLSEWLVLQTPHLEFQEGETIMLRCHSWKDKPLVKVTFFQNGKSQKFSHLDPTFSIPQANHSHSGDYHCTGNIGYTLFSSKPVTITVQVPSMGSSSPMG


Key:
[1] = target: T1, FcγRIIb, extracellular domain with …; assay: SPR (Biacore), relative binding, GpH7-A5/GpH7-B3/GpL16-k0 = 100
[2] = target: T2, FcγRIIa H (FcgRIIa type H, His at …); assay: as above
[3] = target: T3, FcγRIIb; assay: SPR (Biacore), antibody captured, FcγR as analyte; binding relative to GpH7-A5/GpH7-B3/GpL16-k0 = 100
Protocol: (§1) The heterodimerized antibodies He Abs in which one of the H chains was introduced with an alteration were assayed for their binding activities to each activating FcγR and inhibitory FcγR according to the method described in Example 4. […] The activating FcγRs in FIGS. 26, 27, 28, and 29 are FcγRIa, FcγRIIa (R), FcγRIIa (H), and FcγRIIIa, respectively.
(§2) Analysis of interaction between objective antibody and the FcγR was carried out using Biacore T100 (GE Healthcare). HBS-EP+ (GE Healthcare) was used as the running buffer, and the measurement temperature was set to 25° C. Chips produced by immobilizing the antigen peptide by the amine coupling method to a Series S Sencor Chip CM5 (GE Healthcare), or alternatively, chips produced by allowing preliminarily biotinylated antigen peptides to interact with and immobilize onto a Series S Sensor Chip SA (certified) (GE Healthcare) were used. Antibodies of interest were captured onto an antigen peptide-immobilized chip, and allowed to interact to each FcγR diluted with running buffer. To regenerate and repeatedly use the chip, the antibodies captured on the chip were washed off by reacting 10 mM glycine-HCl, pH 1.5.

[4] = target: T4, FcγRIIa H; assay: as above
Protocol: as §1, §2

Binder | He/Con_2b [1] | He/Con_2aH [2] | He/Con_2b [3] | He/Con_2aH [4]
GpH7-A5/GpH7-B3 variant S337_18N/GpL16-k0 (antibody, human IgG1, kappa, He Ab; alteration in one H chain only; also called He Ab) heavy 1: not shown heavy 2: not shown light: DIVMTQSPLSLPVTPGEPASISCQASESLVHSNRNTYLHWYLQKPGQSPQLLIYKVSNRFSGVPDRFSGSGSGTDFTLKISRVEAEDVGVYYCSQNTHVPPTFGQGTKVEIERTVAAPSVFIFPPSDEQLKSGTASVVCLLNNFYPREAKVQWKVDNALQSGNSQESVTEQDSKDSTYSLSSTLTLSKADYEKHKVYACEVTHQGLSSPVTKSFNRGEC | 103 % of control | 99.8 % of control | – | –
GpH7-A5/GpH7-B3 variant G236_20W/GpL16-k0 (antibody, human IgG1, kappa, Heterodimerized IgG1; mutation in the GpH7-B3 chain only; also called He Ab) heavy 1: not shown heavy 2: not shown light: DIVMTQSPLSLPVTPGEPASISCQASESLVHSNRNTYLHWYLQKPGQSPQLLIYKVSNRFSGVPDRFSGSGSGTDFTLKISRVEAEDVGVYYCSQNTHVPPTFGQGTKVEIERTVAAPSVFIFPPSDEQLKSGTASVVCLLNNFYPREAKVQWKVDNALQSGNSQESVTEQDSKDSTYSLSSTLTLSKADYEKHKVYACEVTHQGLSSPVTKSFNRGEC | – | – | 58.2 % of control | 147 % of control
GpH7-A5/GpH7-B3 variant H268_04F/GpL16-k0 (antibody, human IgG1, kappa, Heterodimerized IgG1; mutation in the GpH7-B3 chain only; also called He Ab) heavy 1: not shown heavy 2: not shown light: DIVMTQSPLSLPVTPGEPASISCQASESLVHSNRNTYLHWYLQKPGQSPQLLIYKVSNRFSGVPDRFSGSGSGTDFTLKISRVEAEDVGVYYCSQNTHVPPTFGQGTKVEIERTVAAPSVFIFPPSDEQLKSGTASVVCLLNNFYPREAKVQWKVDNALQSGNSQESVTEQDSKDSTYSLSSTLTLSKADYEKHKVYACEVTHQGLSSPVTKSFNRGEC | – | – | 89.6 % of control | 111 % of control
GpH7-A5/GpH7-B3 variant A330_12R/GpL16-k0 (antibody, human IgG1, kappa, Heterodimerized IgG1; mutation in the GpH7-B3 chain only; also called He Ab) heavy 1: not shown heavy 2: not shown light: DIVMTQSPLSLPVTPGEPASISCQASESLVHSNRNTYLHWYLQKPGQSPQLLIYKVSNRFSGVPDRFSGSGSGTDFTLKISRVEAEDVGVYYCSQNTHVPPTFGQGTKVEIERTVAAPSVFIFPPSDEQLKSGTASVVCLLNNFYPREAKVQWKVDNALQSGNSQESVTEQDSKDSTYSLSSTLTLSKADYEKHKVYACEVTHQGLSSPVTKSFNRGEC | – | – | 84.8 % of control | 108 % of control
GpH7-A5/GpH7-B3 variant A330_19Q/GpL16-k0 (antibody, human IgG1, kappa, Heterodimerized IgG1; mutation in the GpH7-B3 chain only; also called He Ab) heavy 1: not shown heavy 2: not shown light: DIVMTQSPLSLPVTPGEPASISCQASESLVHSNRNTYLHWYLQKPGQSPQLLIYKVSNRFSGVPDRFSGSGSGTDFTLKISRVEAEDVGVYYCSQNTHVPPTFGQGTKVEIERTVAAPSVFIFPPSDEQLKSGTASVVCLLNNFYPREAKVQWKVDNALQSGNSQESVTEQDSKDSTYSLSSTLTLSKADYEKHKVYACEVTHQGLSSPVTKSFNRGEC | – | – | 90.8 % of control | 102 % of control
GpH7-A5/GpH7-B3 variant E333_14T/GpL16-k0 (antibody, human IgG1, kappa, Heterodimerized IgG1; mutation in the GpH7-B3 chain only; also called He Ab) heavy 1: not shown heavy 2: not shown light: DIVMTQSPLSLPVTPGEPASISCQASESLVHSNRNTYLHWYLQKPGQSPQLLIYKVSNRFSGVPDRFSGSGSGTDFTLKISRVEAEDVGVYYCSQNTHVPPTFGQGTKVEIERTVAAPSVFIFPPSDEQLKSGTASVVCLLNNFYPREAKVQWKVDNALQSGNSQESVTEQDSKDSTYSLSSTLTLSKADYEKHKVYACEVTHQGLSSPVTKSFNRGEC | – | – | 86.1 % of control | 100 % of control
GpH7-A5/GpH7-B3 variant E333_13S/GpL16-k0 (antibody, human IgG1, kappa, Heterodimerized IgG1; mutation in the GpH7-B3 chain only; also called He Ab) heavy 1: not shown heavy 2: not shown light: DIVMTQSPLSLPVTPGEPASISCQASESLVHSNRNTYLHWYLQKPGQSPQLLIYKVSNRFSGVPDRFSGSGSGTDFTLKISRVEAEDVGVYYCSQNTHVPPTFGQGTKVEIERTVAAPSVFIFPPSDEQLKSGTASVVCLLNNFYPREAKVQWKVDNALQSGNSQESVTEQDSKDSTYSLSSTLTLSKADYEKHKVYACEVTHQGLSSPVTKSFNRGEC | – | – | 81.8 % of control | 101 % of control
GpH7-A5/GpH7-B3 variant I332_18N/GpL16-k0 (antibody, human IgG1, kappa, Heterodimerized IgG1; mutation in the GpH7-B3 chain only; also called He Ab) heavy 1: not shown heavy 2: not shown light: DIVMTQSPLSLPVTPGEPASISCQASESLVHSNRNTYLHWYLQKPGQSPQLLIYKVSNRFSGVPDRFSGSGSGTDFTLKISRVEAEDVGVYYCSQNTHVPPTFGQGTKVEIERTVAAPSVFIFPPSDEQLKSGTASVVCLLNNFYPREAKVQWKVDNALQSGNSQESVTEQDSKDSTYSLSSTLTLSKADYEKHKVYACEVTHQGLSSPVTKSFNRGEC | – | – | 89.9 % of control | 110 % of control
GpH7-A5/GpH7-B3 variant I332_13S/GpL16-k0 (antibody, human IgG1, kappa, Heterodimerized IgG1; mutation in the GpH7-B3 chain only; also called He Ab) heavy 1: not shown heavy 2: not shown light: DIVMTQSPLSLPVTPGEPASISCQASESLVHSNRNTYLHWYLQKPGQSPQLLIYKVSNRFSGVPDRFSGSGSGTDFTLKISRVEAEDVGVYYCSQNTHVPPTFGQGTKVEIERTVAAPSVFIFPPSDEQLKSGTASVVCLLNNFYPREAKVQWKVDNALQSGNSQESVTEQDSKDSTYSLSSTLTLSKADYEKHKVYACEVTHQGLSSPVTKSFNRGEC | – | – | 98.4 % of control | 110 % of control
